Experiments:
[1] = target: CU44 HA ectodomain mutant V91W of HA2 fused to the foldon (pre-thrombin) (influenza A virus H1N1 A/Thailand/CU44/2006 | not stated); test: SEC; foldon present (pre-thrombin); Superdex 200 in 50 mM Tris (pH 8.0), 100 mM NaCl, 0.5 ml/min; Fig. 1C
[2] = target: CU44 wild-type HA ectodomain (A/Thailand/CU44/2006), foldon removed by thrombin (influenza A virus H1N1 A/Thailand/CU44/2006); test: SEC; […] (pH 8.0), 100 mM NaCl, 0.5 ml/min; […]
[3] = target: CU44 HA ectodomain mutant G47E of HA2, foldon removed by thrombin (influenza A virus H1N1 A/Thailand/CU44/2006); test: SEC; […] (pH 8.0), 100 mM NaCl, 0.5 ml/min; […]
[4] = target: CU44 HA ectodomain mutant S199F of HA1, foldon removed by thrombin (influenza A virus H1N1 A/Thailand/CU44/2006); test: SEC; […] (pH 8.0), 100 mM NaCl, 0.5 ml/min; […]
[5] = target: CU44 HA ectodomain mutant R75L of HA2, foldon removed by thrombin (influenza A virus H1N1 A/Thailand/CU44/2006); test: SEC; […] (pH 8.0), 100 mM NaCl, 0.5 ml/min; […]
[6] = target: CU44 HA ectodomain mutant R106E of HA2, foldon removed by thrombin (influenza A virus H1N1 A/Thailand/CU44/2006); test: SEC; […] (pH 8.0), 100 mM NaCl, 0.5 ml/min; […]
[7] = target: CU44 HA ectodomain mutant F88E of HA2 fused to the foldon (pre-thrombin) (influenza A virus H1N1 A/Thailand/CU44/2006 | not stated); test: SEC; foldon present (pre-thrombin); Superdex 200 in 50 mM Tris (pH 8.0), 100 mM NaCl, 0.5 ml/min; Fig. 1C
[8] = target: CU44 HA ectodomain double mutant F88E/V91W of HA2 fused to the foldon (before the foldon cleavage) (influenza A virus H1N1 A/Thailand/CU44/2006 | not stated); test: as above

Q: Which stoichiometry N [1] does the source give for “CU44 HA ectodomain mutant V91W of HA2 fused to the foldon (pre-thrombin)” here?
A: The stoichiometry N was 3.

Q: How did the stoichiometry N [2] turn out when “CU44 wild-type HA ectodomain (A/Thailand/CU44/2006), foldon removed by thrombin (domain or fragment)” was run?
A: The stoichiometry N was 3.

Q: With “CU44 HA ectodomain mutant G47E of HA2, foldon removed by thrombin (domain or fragment)” as the substance, how does the stoichiometry N [3] read?
A: Its stoichiometry N is 3.

Q: “CU44 HA ectodomain mutant S199F of HA1, foldon removed by thrombin (domain or fragment)” was tested. Which stoichiometry N [4] did it give?
A: Its stoichiometry N is 3.

Q: “CU44 HA ectodomain mutant R75L of HA2, foldon removed by thrombin (domain or fragment)” was tested. Which stoichiometry N [5] did it give?
A: The stoichiometry N was 3.

Q: For “CU44 HA ectodomain mutant R106E of HA2, foldon removed by thrombin (domain or fragment)”, which stoichiometry N [6] is on record?
A: Its stoichiometry N is 3.

Q: How did the stoichiometry N [7] turn out when “CU44 HA ectodomain mutant F88E of HA2 fused to the foldon (pre-thrombin)” was run?
A: The stoichiometry N was 3.

Q: Which stoichiometry N [8] does the source give for “CU44 HA ectodomain double mutant F88E/V91W of HA2 fused to the foldon (before the foldon cleavage)” here?
A: The stoichiometry N was 3.

Source: article PMC5548806
